From patent publication US20110217317A1 (published 2011)

T1: Rhesus D antigen (human, UniProt Q02161 2-417)
T1 construct: whole, on cells; Presented on RhD-positive erythrocytes in all assays; also called RhD; RhD antigen
T1 sequence (looked up): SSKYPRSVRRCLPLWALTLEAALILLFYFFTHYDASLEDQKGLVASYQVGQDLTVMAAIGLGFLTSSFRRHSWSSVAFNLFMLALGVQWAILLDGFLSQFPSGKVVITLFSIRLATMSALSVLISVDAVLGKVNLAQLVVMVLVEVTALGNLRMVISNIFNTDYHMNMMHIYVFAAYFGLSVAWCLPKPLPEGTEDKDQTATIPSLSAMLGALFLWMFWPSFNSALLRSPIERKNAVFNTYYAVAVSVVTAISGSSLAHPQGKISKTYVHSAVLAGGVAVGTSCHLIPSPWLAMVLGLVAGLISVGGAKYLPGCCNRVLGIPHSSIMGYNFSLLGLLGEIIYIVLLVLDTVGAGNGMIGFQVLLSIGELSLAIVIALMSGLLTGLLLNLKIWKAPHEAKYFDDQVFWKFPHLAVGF


Target: T1, Rhesus D antigen
Assay: agglutination assay, Fab on RhD(+)/RhD(-) RBC mix
Experimental: After each round of panning single colonies were picked for analysis of their binding properties to red blood cells in agglutination assays. Briefly, single colonies were inoculated into 2×YT/100 μg/mL carbenicillin/1% glucose and shaken overnight at 37° C. The next day, DeepWell plates were inoculated using 900 μl 2×YT/100 μg/mL carbenicillin/0.1% glucose and 10 μl overnight culture. The plates were shaken for two hours at 37° C., before Fab induction was performed with addition of 300 μl 2×YT/100 μg/mL carbenicillin/0.25 mM IPTG per well. The plate was shaken overnight at 30° C. The following day, the bacteria were pelleted by centrifugation (3200×g, 4° C., 10 minutes), and re-suspended in 100 μl of 0.8 M NaCl, 0.2×PBS, 8 mM EDTA, and incubated for 15 minutes on ice in order to perform a periplasmic extraction of the Fab fragments. The plate was transferred to −20° C. and finally the suspension was thawed and centrifugation was performed for 10 minutes at 4° C. and 3200×g. The periplasmic extract was used in ELISA assays for analysis of Fab content and in agglutination assays to evaluate the binding potential of the individual Fab fragments. The agglutination assay was performed as follows: RhD(−) and RhD(+) RBC were mixed in a 1:1 ratio, and washed 3 times in PBS. After the final wash, the cell mix was re-suspended in 1% BSA in PBS at a density of 1% cells, 50 μl was added to each well of a 96-plate. Periplasmic extracts were added to the wells. As a positive control Rhesogamma P immunoglobulin (Aventis) was used according to the manufacturer's instructions. The plates were incubated for one hour at room temperature with gentle shaking. The cells were washed three times with PBS, before the secondary antibody was added (goat anti-human Fab/FITC conjugate, Sigma F5512) in a 1:100 dilution. The plates were left for agglutination for one hour at room temperature without shaking. Fab fragments positive in the agglutination assay was determined by visual inspection, and recorded by taking a picture. Quantization of the binding activity of the Fab fragments was performed by FACS analysis of the agglutination samples.

Binder | binding result
RhD193.126G05 (Fab, V domains shown, Tested as Fab (periplasmic extract)) VH: QVQLVETGGGVVQPGRSLRLSCAASGFTFSSYGMHWVRQAPGKGLEWVAVIWYDGSNKDYADPVKGRFTISRDNSKNTLYLQMNSLRAEDTAVYYCAREIASRGYSRYLYYFDSWGQGTLVTVSS VL: DIQMTQSPSSLSASVGDRVTITCRASQSISSYLNWYQQNPGKAPKLLIYGASNLQSGVPSRFSGSGSGTDFTLTISSLQPEDFATYYCQQSYSTLALTFGGGTKVEIKR | binds
RhD297.126E06 (Fab, V domains shown, Tested as Fab (periplasmic extract)) VH: QVQLVESGGGVVQPGRSLRLSCAASGFTFRTYGMHWVRQAPGKGLEWVAVIWYDGSNKDYADSVKGRFTISRDNSKNTLHLQMNSLRAEDTAVYYCAREIASRGYSRYLYYLDFWGQGTLVTVSS VL: DIQLTQSPSSLSASVGDRVTITCRASQSISSYLNWYQQNPGKAPKLLIYGASNLQSGVPSRFSGSGSGTDFTLTISSLQPEDFATYYCQQSYSTLALTFGGGTKVEIKR | binds
RhD202.158E07 (Fab, V domains shown, Tested as Fab (periplasmic extract)) VH: QVQLVESGGGVVQPGRSLRLSCAASGFTFSSYGMHWVRQAPGKGLEWVAVIWFDGSNRYYGDSVKGRVTISRDNSKNTLYLRMNSLRAEDTAVYYCAREFYTRSGLWSQGYSYYMDVWGKGTTVTVSS VL: EIVLTQSPGTLSLSPGERATLSCRASQSVSSSYLAWYQHKPGQAPRLLIYGSSNRATGIPDRFSGSGSGTDFTVTISRLEPEDFAVYYCQQYGTAPYTFGQGTKLEIKR | binds
RhD298.126E10 (Fab, V domains shown, Tested as Fab (periplasmic extract)) VH: QVQLVESGGGVVQPGRSLRLSCAASGFTFSSYGMHWVRQAPGKGLEWVAVIWYDGSNKYYADSVKGRFTISRDNSKNTLYLQMNSVRAEDTAVYYCARDLSTQRGYSRYYYVMDVWGQGTTVTVSS VL: DIQMTQSPSSLSASVGDRVTITCRASQSISTYLNWYQQKPGKAPKLLISAASSLQSGVPSRFSGSGSGTDFTLTISSLQREDYAAYYCQQSYSTPPYTFGQGTKLEIKR | binds
RhD192.119G06 (Fab, V domains shown, Tested as Fab (periplasmic extract)) VH: QVQLVESGGGLVKPGGSLRLSCAASGFTFSSYAMNWVRQAPGKGLEWVSSISGTSSYIYYADSVKGRFTIFRDNAKSSVYLQMNSLRVEDTAVYYCARDRWWGMVRRVFPTYPFDYWGQGTLVTVSS VL: DIQLTQSPSSVSASVGDRVTITCRASQGINNLLAWYQQKPGKAPKLLIYAASNLQSGVPSRFSGSGSGTDFTLTINSLQPEDFATYYCQQANSFPLTFGGGTKVEIKR | binds
RhD201.164H12 (Fab, V domains shown, Tested as Fab (periplasmic extract)) VH: QVQLVESGGGVVQPGRSLRLSCAASGFTFSSYAMHWVRQAPGKGLEWVAVISYDGSNKYYADSVKGRFTISRDNSKNTLYLQMNSLRAEDTAVYYCARESTLYSSSWYRRYYYYSMDVWGQGTTVTVSS VL: EIVLTQSPATLSVSPGERATLSCRASQSVTSNLAWYQQKPGQAPRLLIYGASTRATGVPARFSGSGSGTEFSLTISSLQSEDFAVYYCQQYNNWPPIFTFGPGTKLDIKR | binds
RhD197.127A08 (Fab, V domains shown, Tested as Fab (periplasmic extract); lambda clone) VH: QVQLVESGGGVVQPGRSLRLSCAASGFTFSNYGMHWVRQAPGKGLEWVAVIWFDGSNRDYADSVKGRFTISRDNSKKTLYLQMNSLRAEDTAVYYCATELARGRLRALEYWGQGTLVTVSS VL: QTVVTQEPSLTVSPGGTVTLTCASSTGAVTTGYYPNWFQQKPGQAPRALIYSTSKKHSWTPARFSGSLLGGKAALTLSGVQPEDEAEYYCLLFYGGAQLGVFGGGTKLTVLG | binds
RhD207.127A11 (Fab, V domains shown, Tested as Fab (periplasmic extract)) VH: EVQLVESGGGVVQPGRSLRLSCAASGFTFSSYGMHWVRQAPGKGLEWVAVIWYDGSNKDYVDSVKGRFTISRDNSKNTLYLQMNSLRAEDTAVYYCARELAKGRLRDLDHWGQGTLVTVSS VL: QAVVTQEPSLTVSPGGTVTLTCASSTGAVTTGYYPNWFQQKPGQAPRALVHSTSKKHSWTPARFSGSLLGGKAALTLSGVQPEDEAEYYCLLFYGGAQLGVFGGGTKLTVLG | binds
RhD157.119D11 (Fab, V domains shown, Tested as Fab (periplasmic extract)) VH: EVQLVESGGGLVQPGGSLRLSCVASGFTFRSFDMNWVRQAPGKGLEWVSYINSRGSTIYYADSVKGRFTISRENAKNSLYLQMNSLRAEDTAVYYCARDLYGDYDPKSYYYYGMGVWGQGTTVTVSS VL: EIVLTQSPATLSLSPGERATLSCRASQSVSSYLAWYQQKRGQAPRLLIFNASNRATGIPARFSGSGSGTDFTLTISSLEPEDFAVYYCQQRSSWPPMYTFGQGTKLEIKR | binds

Second part, the binder after the results:

binding result | Binder
binds | RhD190.119F05 (Fab, V domains shown, Tested as Fab (periplasmic extract)) VH: EVQLVETGGGVVQPGRSLRLSCAASGFSFSNYGMHWVRQAPGKGLEWVAVIWFDGSIKYYVDSVKGRFTISRDNSKNTLYLQMNSLRAEETAIYFCARENSVLVPGTIRRRYYLDYWGQGTLVTVSS VL: DIQLTQSPSSLSASVGDRVTITCRASQSISSYLNWYQQKPGEAPKLLIYVASTLQSGAPSRFSGSGSGTDYTLTISSLQPEDSATFYCQQTYSPPYTFGQGTKLEIKR
binds | RhD199.164E03 (Fab, V domains shown, Tested as Fab (periplasmic extract)) VH: QVQLVESGGGVVQPGRSLRLSCAASGFTFSSYGMHWVRQAPGKGLEWVAVIWYDGSNKYYADSVKGRFTISRDNSKNTLHLQMNSLRAEDTAVYYCAREVGFGSGWSRYYYGMDVWGQGTTVTVSS VL: not shown
binds | RhD194.126G10 (Fab, V domains shown, Tested as Fab (periplasmic extract)) VH: QVTLKESGPVLVKPTETLTLTCTVSGFSLSNARMGVSWIRQPPGKALEWLAHIFSNDEKSYSTSLKSRLTISKDTSKSQVVLTMTNMDPVDTATYYCARMRLTMVRGVITYYYYSMDVWGQGTTVTVSS VL: DIQMTQSPSSLSASVGDRVTITCRASQSISTYLNWYQQKPGKAPKLLIYAASTLQSGVPSRFSGSGSGTHFTLTISSLQREDFATYYCQQTYRTPTWTFGQGTKVEIKR
binds | RhD198.127F10 (Fab, V domains shown, Tested as Fab (periplasmic extract)) VH: QVQLVQSGGGVVQPGKSLRLSCAASGFTFSTYGMHWVRQAPGKGLEWVAVIWYDGSNKYYADSVKGRFTISRDTSKNTLYLQMNSVRVEDTAVYYCARDLTTQRGYSRYHYVMDVWGQGTTVTVSS VL: DIQMTQSPSSLSASVGDRVTITCRASQSIGNYLNWYQQKPGKAPKLLISAASSLQSGVPSRFSGSGSGTDFTLTISSLHREDYATYYCQQSYSTPPYTFGQGTKLEIKR
binds | RhD196.126H11 (Fab, V domains shown, Tested as Fab (periplasmic extract)) VH: QVQLVESGGGVVQPGRSLRLSCAASGFTFSSYGMHWVRQAPGKGLEWVAVIWYDGSNKDYADSVKGRFTISRDNSKNTLYLQMNSVRAEDTAVYYCARELSTQRGYSRYHYVMDVWGQGTTVTVSS VL: DIQMTQSPSSLSASVGDRVTITCRASQSISTYLNWYQQKPGKAPKLLIYAASTLQSGVPSRFSGSGSGTHFTLTISSLQREDFATYYCQQSYGTPTWTFGQGTKVEIKR
binds | RhD200.164G10 (Fab, V domains shown, Tested as Fab (periplasmic extract)) VH: VQLVESGGGGVVQPGRSLRLSCAASGFTFSSYGMHWVRQAPGKGLEWVAVIWYDGSNKYYADSVKGRFTISRDNSKNTLYLQMNSLRAEDTAVYYCARESTLYSSSWYRRYYYYGMDVWGQGTTVTVSS VL: not shown
binds | RhD195.127A07 (Fab, V domains shown, Tested as Fab (periplasmic extract)) VH: QVQLQESGPGLVKPSQTLSLTCTVSGGSISSGSYYWSWIRQPAGKGPEWIGRIYTSGSTNYNPSLKSRLTISVDTSKNQFSLKLTSVTAADTAVYYCARAPSYYDSSGYRYWYIDLWGRGTLVTVSS VL: DIQLTQSPSSLSASVGDRVTITCRASQNINRYLNWYQHKPGRAPELLIYAASTLRRGVPSRFSGSGSGTDFTLTISSLQPEDFATYYCQQSYSRGTFGQGTKVEIKR
binds | RhD191.119E08 (Fab, V domains shown, Tested as Fab (periplasmic extract)) VH: QVQLVESGGDLVQPGGSLRLSCAASGFTFRSYEMNWVRQAPGKGLEWVSYINSRGNTKYYADSVKGRFTISRDNAKKSLYLQMSSLRAEDTAVYYCARNLFGDYDLKSYYYNAMDVWGQGTLVTVSS VL: EIVLTQSPGTLSSSPGERATLSCRASQSVTSRYLAWYQQKHGQAPRLLIYGTSTRATGIPDRFSGGGSQTDFTLTISRLEPEDFAVYYCQHYDDSISTYIFGPGTELEIKR
